Laboratory results as given in the Human Domainome abundance scans (Beltran et al. 2025).
± gives the uncertainty stated by the source.

B1: GA-binding protein alpha chain, residues 172 to 250; numbered along this chain, Q06546 (parent)
chain: GYRKEQERLGIPYDPIQWSTDQVLHWVVWVMKEFSMTDIDLTTLNISGRELCSLNQEDFFQRVPRGEILWSHLELLRKY

Variants of: B1
Assay: abundance fitness (aPCA) (normalised: wild type 0, dead -1); higher = more abundant; growth selection in yeast, the domain comes from the species named
Settings: Homo sapiens

In order of rising abundance fitness:
1. GYRKEQERLGIPYDPIQWSTDQVLHWVVIVMKEFSMTDIDLTTLNISGRELCSLNQEDFFQRVPRGEILWSHLELLRKY  -1.09 ± 0.28
2. GYRKEQERLGIPYDPIQHSTDQVLHWVVWVMKEFSMTDIDLTTLNISGRELCSLNQEDFFQRVPRGEILWSHLELLRKY  -1 ± 0.46
3. GYRKEQERLGIPYDPIQWSTDQELHWVVWVMKEFSMTDIDLTTLNISGRELCSLNQEDFFQRVPRGEILWSHLELLRKY  -0.951 ± 0.18
4. GYRKEQERLGIPYDPIQWSTDQVLHWVVWVMKEFSMTDIDLTTLNISGRELCSLNQEDFFQRVPRGEIEWSHLELLRKY  -0.934 ± 0.2
5. GYRKEQERLGIPYDPIQRSTDQVLHWVVWVMKEFSMTDIDLTTLNISGRELCSLNQEDFFQRVPRGEILWSHLELLRKY  -0.905 ± 0.07
6. GYRKEQERLGIPYDPIQWSTDGVLHWVVWVMKEFSMTDIDLTTLNISGRELCSLNQEDFFQRVPRGEILWSHLELLRKY  -0.88 ± 0.063
7. GYRKEQERLGIPYDPIQKSTDQVLHWVVWVMKEFSMTDIDLTTLNISGRELCSLNQEDFFQRVPRGEILWSHLELLRKY  -0.864 ± 0.15
8. GYRKEQERPGIPYDPIQWSTDQVLHWVVWVMKEFSMTDIDLTTLNISGRELCSLNQEDFFQRVPRGEILWSHLELLRKY  -0.815 ± 0.096
9. GYRKEQERLGIPYDPIQWSTDQVLHWVVWVMKEFSMTDIDLTTLNIWGRELCSLNQEDFFQRVPRGEILWSHLELLRKY  -0.812 ± 0.093
10. GYRKEQERLGRPYDPIQWSTDQVLHWVVWVMKEFSMTDIDLTTLNISGRELCSLNQEDFFQRVPRGEILWSHLELLRKY  -0.808 ± 0.062
11. GYRKEQERLGIPYDPIQWSTDQYLHWVVWVMKEFSMTDIDLTTLNISGRELCSLNQEDFFQRVPRGEILWSHLELLRKY  -0.804 ± 0.22
12. GYRKEQERLGIPYDPIQWSTDQKLHWVVWVMKEFSMTDIDLTTLNISGRELCSLNQEDFFQRVPRGEILWSHLELLRKY  -0.791 ± 0.14
13. GYRKEQERLGIPYDPIQWSTDQVLHWVVWVMKEFSMTDIDLTTLNISGRELCSLNQEDFFPRVPRGEILWSHLELLRKY  -0.777 ± 0.12
14. GYRKEQERLGIPYDPIQWSTDQVLHWDVWVMKEFSMTDIDLTTLNISGRELCSLNQEDFFQRVPRGEILWSHLELLRKY  -0.75 ± 0.12
15. GYRKEQERLGIPYDPIQWSTDQVLHWVVWVMKEFSMTDIDLTTLNISGREPCSLNQEDFFQRVPRGEILWSHLELLRKY  -0.746 ± 0.082
16. GYRKEQERLGIPYDMIQWSTDQVLHWVVWVMKEFSMTDIDLTTLNISGRELCSLNQEDFFQRVPRGEILWSHLELLRKY  -0.635 ± 0.11
17. GYRKEQERLGITYDPIQWSTDQVLHWVVWVMKEFSMTDIDLTTLNISGRELCSLNQEDFFQRVPRGEILWSHLELLRKY  -0.56 ± 0.077
18. GYRKEQERLGIPYDPIQWSTDQVLHWVVWVMKEFSMTDIDLTTLNISGRELCSLNQEDFFQRVPRGEILMSHLELLRKY  -0.557 ± 0.095
19. GYRKEQERLGIPYDPIQWSTDQVLHWVVWVMKEFSMTDIDLTTLNISGRELCSLNQEDFFQRVIRGEILWSHLELLRKY  -0.554 ± 0.15
20. GYRKLQERLGIPYDPIQWSTDQVLHWVVWVMKEFSMTDIDLTTLNISGRELCSLNQEDFFQRVPRGEILWSHLELLRKY  -0.45 ± 0.05
21. GYRKEQERLGIPYDPIQWSTDQVLHWVVWVMKEFSMTDIDLTTLNISGRELCSLNQEDFFQRVPRGEILWSHKELLRKY  -0.422 ± 0.18
22. GYRKEQERLGIPYDPIQWSTDAVLHWVVWVMKEFSMTDIDLTTLNISGRELCSLNQEDFFQRVPRGEILWSHLELLRKY  -0.295 ± 0.052
23. GYRKEQERLGIPYDPIQWSTDQVLHWQVWVMKEFSMTDIDLTTLNISGRELCSLNQEDFFQRVPRGEILWSHLELLRKY  -0.271 ± 0.051
24. GYRKEQERLGIPYDPIQWSTDQVLHWVVWVMKEFSMTDIDLTTLNISGRELCSLNQEDFFQRVPRGEIYWSHLELLRKY  -0.265 ± 0.08
25. GYRKEQERLGIPYDPIQWSTDQVLHWVVWVMKEFSMTDITLTTLNISGRELCSLNQEDFFQRVPRGEILWSHLELLRKY  -0.263 ± 0.059
26. GYRKEQERLGIPYDPIQWSTDQVLHWVVWVMKEFSMTDIDNTTLNISGRELCSLNQEDFFQRVPRGEILWSHLELLRKY  -0.258 ± 0.088
27. GYRKEQERLGIPYSPIQWSTDQVLHWVVWVMKEFSMTDIDLTTLNISGRELCSLNQEDFFQRVPRGEILWSHLELLRKY  -0.205 ± 0.036
28. GYRKEQERLGIPYDPIQWSTDQVLHWVVWVMKEFSMTDIDLTILNISGRELCSLNQEDFFQRVPRGEILWSHLELLRKY  -0.202 ± 0.074
29. GYRKEQERLGIPYDPIQWSTDQVLHWVVWVMKEFSMTDIDLTTLLISGRELCSLNQEDFFQRVPRGEILWSHLELLRKY  -0.195 ± 0.037
30. GYRKEQERLGIPYDPIQWSTDQVLHWVVWVMKEFSMTDIDLTTLYISGRELCSLNQEDFFQRVPRGEILWSHLELLRKY  -0.191 ± 0.086
31. GYRKEQENLGIPYDPIQWSTDQVLHWVVWVMKEFSMTDIDLTTLNISGRELCSLNQEDFFQRVPRGEILWSHLELLRKY  -0.191 ± 0.12
32. GYRKEQERLGIPYDPIQWSTDQVLHWVVWVMKEFSMTDIDLTTLNCSGRELCSLNQEDFFQRVPRGEILWSHLELLRKY  -0.17 ± 0.06
33. GYRKYQERLGIPYDPIQWSTDQVLHWVVWVMKEFSMTDIDLTTLNISGRELCSLNQEDFFQRVPRGEILWSHLELLRKY  -0.149 ± 0.096
34. GYRKEQERLGIPYDPIQWSTDQVLHWVVWVMKEFSMTDIDLTTLNISGRELCSLNQEDFFQRVPLGEILWSHLELLRKY  -0.141 ± 0.037
35. GYRKEQERLGIPYDPIMWSTDQVLHWVVWVMKEFSMTDIDLTTLNISGRELCSLNQEDFFQRVPRGEILWSHLELLRKY  -0.134 ± 0.069
36. GYRKEQERLGIPYDPIQWSTDQVLHWVVWVMKEFSMTDISLTTLNISGRELCSLNQEDFFQRVPRGEILWSHLELLRKY  -0.124 ± 0.032
37. GYRKEQERLGIPYDPIQWSTDQVLHWVVWVMKEFSMTDIDLTWLNISGRELCSLNQEDFFQRVPRGEILWSHLELLRKY  -0.123 ± 0.048
38. GYRKEQERLGIPYDPIVWSTDQVLHWVVWVMKEFSMTDIDLTTLNISGRELCSLNQEDFFQRVPRGEILWSHLELLRKY  -0.121 ± 0.043
39. GYRKEQERLGIPGDPIQWSTDQVLHWVVWVMKEFSMTDIDLTTLNISGRELCSLNQEDFFQRVPRGEILWSHLELLRKY  -0.119 ± 0.028
40. GYRKEQERLGIPYDPIQWSTDQVLHWVVWVMKEFSMTDIDLTTLNISGRELCSLNQEDFFQRMPRGEILWSHLELLRKY  -0.113 ± 0.073
41. GYRKEQERTGIPYDPIQWSTDQVLHWVVWVMKEFSMTDIDLTTLNISGRELCSLNQEDFFQRVPRGEILWSHLELLRKY  -0.11 ± 0.055
42. GYRKEQERLGIPYDPIQWSTDQVLHWVVWVMKEFSMTDIDLTTLNISGRELCSLNQEDFFQQVPRGEILWSHLELLRKY  -0.106 ± 0.074
43. GYRKEQERLGIPYDPIQWSTDQVLHWVVWVMKEFSMTDIDLTTLNISGRELCSLNQEDFFQRVPRGEILWPHLELLRKY  -0.102 ± 0.044
44. GYRKEQERLGIPYDPIQWSTDQVLHWVVWVMKEFSMTDIDLTTLNISGRELCSLNQEDFFQRVPRGEILWSHLELLRKV  -0.096 ± 0.065
45. GYRKEQERLGIPYDPIQWSTDQVLHWVVWVMKEFSMTDIDLTTLQISGRELCSLNQEDFFQRVPRGEILWSHLELLRKY  -0.086 ± 0.062
46. GYRKEQERLGIPYDPIWWSTDQVLHWVVWVMKEFSMTDIDLTTLNISGRELCSLNQEDFFQRVPRGEILWSHLELLRKY  -0.08 ± 0.048
47. GYRKEQARLGIPYDPIQWSTDQVLHWVVWVMKEFSMTDIDLTTLNISGRELCSLNQEDFFQRVPRGEILWSHLELLRKY  -0.071 ± 0.044
48. GYRKEQERLGIPYDPIQWSTDQVLHWVVWVMKEFSMTDIDLTTLNISGRELCSLNQEDFFQRVPNGEILWSHLELLRKY  -0.07 ± 0.15
49. GYRKEQERLGIPYDPIQWSTDQVLHWVVWVMKESSMTDIDLTTLNISGRELCSLNQEDFFQRVPRGEILWSHLELLRKY  -0.063 ± 0.044
50. GYRKEQERLGIPYDPIQWSTDQVLHWVVWVMKEFSMTDIDLTTLNISGRELCRLNQEDFFQRVPRGEILWSHLELLRKY  -0.057 ± 0.037
51. GYRKEQERLGIPYDPIQWNTDQVLHWVVWVMKEFSMTDIDLTTLNISGRELCSLNQEDFFQRVPRGEILWSHLELLRKY  -0.053 ± 0.11
52. GYRKEQERLGIPYDPIQWDTDQVLHWVVWVMKEFSMTDIDLTTLNISGRELCSLNQEDFFQRVPRGEILWSHLELLRKY  -0.048 ± 0.072
53. GYRKEQERLGIPYDPIQWSTDQVLHWVVWVMKEFSMTDIDLTTLNIPGRELCSLNQEDFFQRVPRGEILWSHLELLRKY  -0.04 ± 0.038
54. GYRKEQERLGIPYDPIQWSTDQVLHWVVWVMKEFSMTDIDLTTLNISGRELCSLNQEDFFQRVPRGTILWSHLELLRKY  -0.038 ± 0.05
55. GYRKEQERLGIPYDPIQWSTDQVLHWVVWVMKERSMTDIDLTTLNISGRELCSLNQEDFFQRVPRGEILWSHLELLRKY  -0.035 ± 0.032
56. GYRKEQERLGIPYDPIQWSTDQVLHWVVWVMKEFSMTDIDLTTLNISGRELCSLNQEDFFQRVPYGEILWSHLELLRKY  -0.033 ± 0.089
57. GYRKEQERLGIPYDPIQWSTDQVLHWVVWVMKEFSMTDIDLTTLNISGRELCSLNQEQFFQRVPRGEILWSHLELLRKY  -0.03 ± 0.053
58. GYRKEQERLGIPYDPIQWSTDQVLHWVVWVMKEFSMTDIDLTTLNISGRELCSLNQEDFFQRVPRGGILWSHLELLRKY  -0.027 ± 0.034
59. GYRKEQEKLGIPYDPIQWSTDQVLHWVVWVMKEFSMTDIDLTTLNISGRELCSLNQEDFFQRVPRGEILWSHLELLRKY  -0.024 ± 0.064
60. GYRKEQERLGIPYDPIQWSTDQVLHWVVWVMKEFSMTDIDLTTLNISGRELCSWNQEDFFQRVPRGEILWSHLELLRKY  -0.021 ± 0.049
61. GYRKEQERLGIPYDPWQWSTDQVLHWVVWVMKEFSMTDIDLTTLNISGRELCSLNQEDFFQRVPRGEILWSHLELLRKY  -0.016 ± 0.056
62. GYRKEQERLGIPYDPIQWSTDQVLHWVVWVMKEFSMTDIDLTTLNISGRELCSLNQEDFFQRVPRGEILWSHLERLRKY  -0.012 ± 0.035
63. GYRKEQERLGIPYDPIQWSTDQVLHWVVWVMKEFSMTDIDLTTLNISGRELCSLNQEDFFVRVPRGEILWSHLELLRKY  -0.01 ± 0.042
64. GYRKEQERLGIPYDPIQWSTDEVLHWVVWVMKEFSMTDIDLTTLNISGRELCSLNQEDFFQRVPRGEILWSHLELLRKY  0 ± 0.027
65. GYRKEQERLGIPYDPIQWSTDQVLHWVVWTMKEFSMTDIDLTTLNISGRELCSLNQEDFFQRVPRGEILWSHLELLRKY  0.003 ± 0.071
66. GYRKEQERLGIPYDPIQWSTDQVLHWVVWVMKEFSMTDIDLTSLNISGRELCSLNQEDFFQRVPRGEILWSHLELLRKY  0.014 ± 0.038
67. GYRKEQERLGIPYDPIQWSTDQVLHWVVWVMKEFSMTDIDLTTLNISGRELCSLNQEDFFTRVPRGEILWSHLELLRKY  0.014 ± 0.053
68. GYRKEQERLGIPYDPIQWSTDQVLHWVVWVMKEFSMTDIDLTTLNISGRELCSLNQEDFFQRVPRGEILWSHLEHLRKY  0.031 ± 0.068
69. GYRKELERLGIPYDPIQWSTDQVLHWVVWVMKEFSMTDIDLTTLNISGRELCSLNQEDFFQRVPRGEILWSHLELLRKY  0.037 ± 0.036
